Experimental data: PMC3195444 (Biochemical Journal, 2011)
Values joined by “and” are separate entries in the source; they are usually repeats but may differ in a detail not shown here. Identical values can stand only once.

Assays:
[1] = molecular target: T1, sly1^E138K, Gal4 DNA-binding domain fusion (Arabidopsis thaliana, UniProt Q9STX3 1-151, E138K); assay: yeast three-hybrid
T1 sequence: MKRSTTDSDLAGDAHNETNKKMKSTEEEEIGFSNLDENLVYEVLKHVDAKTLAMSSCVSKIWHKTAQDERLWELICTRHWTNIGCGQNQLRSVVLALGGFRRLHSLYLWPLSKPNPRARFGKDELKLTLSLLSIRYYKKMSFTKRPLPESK

[2] = molecular target: T2, MBP–GID1A (GIBBERELLIC ACID-… DWARF-1A, MBP fusion) (Arabidopsis thaliana, UniProt Q9MAA7 1-345); assay: SPR
T2 sequence: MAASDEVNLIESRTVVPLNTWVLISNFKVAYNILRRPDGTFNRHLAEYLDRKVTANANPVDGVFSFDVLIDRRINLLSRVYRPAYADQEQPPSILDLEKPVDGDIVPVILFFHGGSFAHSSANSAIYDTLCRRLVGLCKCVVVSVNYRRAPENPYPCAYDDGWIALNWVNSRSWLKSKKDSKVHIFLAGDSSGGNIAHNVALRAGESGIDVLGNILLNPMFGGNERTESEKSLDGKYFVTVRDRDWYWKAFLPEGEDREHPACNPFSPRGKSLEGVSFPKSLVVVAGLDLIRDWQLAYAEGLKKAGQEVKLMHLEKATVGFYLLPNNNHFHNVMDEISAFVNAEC

B1: RGL1 (REPRESSOR OF GA1-3-LIKE 1), Gal4 activation domain fusion (natural protein)
chain: MKREHNHRESSAGEGGSSSMTTVIKEEAAGVDELLVVLGYKVRSSDMADVAHKLEQLEMVLGDGISNLSDETVHYNPSDLSGWVESMLSDLDPTRIQEKPDSEYDLRAIPGSAVYPRDEHVTRRSKRTRIESELSSTRSVVVLDSQETGVRLVHALLACAEAVQQNNLKLADALVKHVGLLASSQAGAMRKVATYFAEGLARRIYRIYPRDDVALSSFSDTLQIHFYESCPYLKFAHFTANQAILEVFATAEKVHVIDLGLNHGLQWPALIQALALRPNGPPDFRLTGIGYSLTDIQEVGWKLGQLASTIGVNFEFKSIALNNLSDLKPEMLDIRPGLESVAVNSVFELHRLLAHPGSIDKFLSTIKSIRPDIMTVVEQEANHNGTVFLDRFTESLHYYSSLFDSLEGPPSQDRVMSELFLGRQILNLVACEGEDRVERHETLNQWRNRFGLGGFKPVSIGSNAYKQASMLLALYAGADGYNVEENEGCLLLGWQTRPLIATSAWRINRVE
For B1, the “fold recruitment against the ΔDELLA mutant in the presence of GID1A/GA3” value [1] was 4 fold.

B2: MBP–RGL1^N (RGL1^1–137, N-terminal or DELLA domain of RGL1, MBP fusion) (domain or fragment)
chain: MKREHNHRESSAGEGGSSSMTTVIKEEAAGVDELLVVLGYKVRSSDMADVAHKLEQLEMVLGDGISNLSDETVHYNPSDLSGWVESMLSDLDPTRIQEKPDSEYDLRAIPGSAVYPRDEHVTRRSKRTRIESELSST
In the case of B2, the Ka [2] is reported as 5.73e+08 M⁻¹ and 3.58e+08 M⁻¹ and 6.49e+08 M⁻¹.
